{"source": "patent US20040142379A1", "about": "(CARLSBERG RESEARCH LABORATORY, published 2004)", "assay_in_all_cases": "on-bead capture from E. coli membrane protein extract; tryptic digest, MALDI peptide mass fingerprint", "key": {"[1]": {"biological_target": "T1, Mannose-1-phosphate guanyl transferase (Escherichia coli, UniProt P24174 1-478)", "T1 sequence (looked up)": "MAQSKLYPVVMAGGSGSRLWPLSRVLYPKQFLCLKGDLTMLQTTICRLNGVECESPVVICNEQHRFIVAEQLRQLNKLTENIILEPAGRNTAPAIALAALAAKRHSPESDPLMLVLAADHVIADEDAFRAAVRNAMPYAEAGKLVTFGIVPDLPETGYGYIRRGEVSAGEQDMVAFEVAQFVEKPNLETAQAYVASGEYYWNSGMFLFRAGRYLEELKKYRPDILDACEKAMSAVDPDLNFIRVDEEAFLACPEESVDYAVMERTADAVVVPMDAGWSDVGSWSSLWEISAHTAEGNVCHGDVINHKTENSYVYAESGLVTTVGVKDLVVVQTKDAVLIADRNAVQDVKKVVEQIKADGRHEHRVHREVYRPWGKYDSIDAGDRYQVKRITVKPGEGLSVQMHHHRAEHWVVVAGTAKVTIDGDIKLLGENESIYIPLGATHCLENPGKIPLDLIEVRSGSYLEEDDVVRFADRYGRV"}, "[2]": {"biological_target": "isopropyl malate dehydrogenase (Escherichia coli, UniProt P30125 2-363)", "sequence (P30125 2-363 limits assumed)": "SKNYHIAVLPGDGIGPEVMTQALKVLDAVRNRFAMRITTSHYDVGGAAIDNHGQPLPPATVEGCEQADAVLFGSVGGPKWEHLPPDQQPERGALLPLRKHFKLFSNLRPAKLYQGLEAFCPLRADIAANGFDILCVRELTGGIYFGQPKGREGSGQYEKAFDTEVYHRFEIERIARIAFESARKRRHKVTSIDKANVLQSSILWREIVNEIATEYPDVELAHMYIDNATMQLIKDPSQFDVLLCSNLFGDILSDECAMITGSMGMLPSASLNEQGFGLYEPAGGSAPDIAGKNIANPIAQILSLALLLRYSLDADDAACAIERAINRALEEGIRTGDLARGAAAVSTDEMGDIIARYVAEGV"}, "[3]": {"biological_target": "T2, Biotin synthetase (Escherichia coli, UniProt P12996 1-346)", "T2 sequence (looked up)": "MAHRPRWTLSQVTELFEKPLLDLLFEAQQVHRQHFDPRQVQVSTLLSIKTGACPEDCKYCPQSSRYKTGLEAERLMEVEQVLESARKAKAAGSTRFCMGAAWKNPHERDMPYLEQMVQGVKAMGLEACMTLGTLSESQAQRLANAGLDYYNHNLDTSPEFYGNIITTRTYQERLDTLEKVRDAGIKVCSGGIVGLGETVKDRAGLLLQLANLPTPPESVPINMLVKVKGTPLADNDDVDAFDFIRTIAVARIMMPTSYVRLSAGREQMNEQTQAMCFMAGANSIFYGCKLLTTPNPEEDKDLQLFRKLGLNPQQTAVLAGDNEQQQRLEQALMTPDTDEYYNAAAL"}, "[4]": {"biological_target": "UDP-glucose dehydrogenase (Escherichia coli, UniProt P76373 1-388)"}, "[5]": {"biological_target": "T3, glutamine tRNA synthetase (Escherichia coli, UniProt P00962 2-554)", "T3 sequence (looked up)": "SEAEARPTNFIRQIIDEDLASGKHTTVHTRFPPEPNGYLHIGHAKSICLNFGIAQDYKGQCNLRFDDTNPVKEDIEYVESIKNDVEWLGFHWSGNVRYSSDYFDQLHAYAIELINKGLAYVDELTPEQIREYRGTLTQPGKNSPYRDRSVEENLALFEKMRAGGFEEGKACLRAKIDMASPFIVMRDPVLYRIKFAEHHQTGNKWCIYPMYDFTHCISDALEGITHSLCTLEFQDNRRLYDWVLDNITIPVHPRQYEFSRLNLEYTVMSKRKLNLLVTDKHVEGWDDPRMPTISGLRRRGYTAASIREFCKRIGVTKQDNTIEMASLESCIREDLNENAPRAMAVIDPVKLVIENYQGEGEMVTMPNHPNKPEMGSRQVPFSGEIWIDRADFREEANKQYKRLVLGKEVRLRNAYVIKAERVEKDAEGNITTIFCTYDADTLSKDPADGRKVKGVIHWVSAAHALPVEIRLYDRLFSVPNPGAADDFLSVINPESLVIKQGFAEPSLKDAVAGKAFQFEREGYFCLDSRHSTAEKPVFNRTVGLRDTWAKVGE"}, "[6]": {"biological_target": "T4, NAD-dependent 7-alpha-hydroxysteriod dehydrogenase (Escherichia coli, UniProt P0AET8 1-255)", "T4 sequence (looked up)": "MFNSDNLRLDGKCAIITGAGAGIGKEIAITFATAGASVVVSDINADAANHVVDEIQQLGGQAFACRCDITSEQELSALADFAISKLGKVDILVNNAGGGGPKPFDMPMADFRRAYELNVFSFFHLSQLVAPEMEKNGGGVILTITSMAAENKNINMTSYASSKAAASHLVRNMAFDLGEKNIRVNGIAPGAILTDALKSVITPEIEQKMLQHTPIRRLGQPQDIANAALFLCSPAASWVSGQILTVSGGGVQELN"}, "[7]": {"biological_target": "T5, citrate synthetase (Escherichia coli, UniProt P0ABH7 1-427)", "T5 sequence (looked up)": "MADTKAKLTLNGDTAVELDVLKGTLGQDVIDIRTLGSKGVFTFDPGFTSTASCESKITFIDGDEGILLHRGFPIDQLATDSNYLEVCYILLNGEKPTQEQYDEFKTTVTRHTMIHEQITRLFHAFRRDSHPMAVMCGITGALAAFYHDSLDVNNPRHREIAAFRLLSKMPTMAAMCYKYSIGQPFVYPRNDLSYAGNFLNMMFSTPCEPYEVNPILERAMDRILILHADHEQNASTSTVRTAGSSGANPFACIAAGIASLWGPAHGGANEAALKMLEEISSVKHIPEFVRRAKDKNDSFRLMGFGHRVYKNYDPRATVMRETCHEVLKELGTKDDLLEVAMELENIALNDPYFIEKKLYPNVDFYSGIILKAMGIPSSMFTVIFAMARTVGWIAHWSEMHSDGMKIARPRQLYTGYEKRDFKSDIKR"}}, "note": "Positions of bridges follow the written chain, without caps; N, C: chain ends. Non-standard residues stand in square brackets, D forms with d. Primed or numbered codes have the meaning given here. No end group written: not given here. T(Sa)″ = not defined here"}
{"binder": "[T(Sa)″]HWHI (lactam N-1; reading uncertain; also: printed as T(Sa)-H-W-H-I, Library 2 ligand, resynthesised on PEGA4000 resin bead)", "note": "[T(Sa)-H-W-H-I]", "values": [{"measurement": "binding result", "setting": "[1]", "result": "binds"}, {"measurement": "binding result", "setting": "[2]", "result": "binds"}]}
{"binder": "[T(Sa)″]YSMP (lactam N-1; reading uncertain; also: printed as T(Sa)-Y-S-M-P, Library 2 ligand, resynthesised on PEGA4000 resin bead)", "note": "[T(Sa)-Y-S-M-P]", "values": [{"measurement": "binding result", "setting": "[3]", "result": "binds"}, {"measurement": "binding result", "setting": "[4]", "result": "binds"}]}
{"binder": "[T(Sa)″]GVFL (lactam N-1; reading uncertain; also: printed as T(Sa)-G-V-F-L, Library 2 ligand, resynthesised on PEGA4000 resin bead)", "note": "[T(Sa)-G-V-F-L]", "values": [{"measurement": "binding result", "setting": "[5]", "result": "binds"}]}
{"binder": "[T(Sa)″]LSWW (lactam N-1; reading uncertain; also: printed as T(Sa)-L-S-W-W, Library 2 ligand, resynthesised on PEGA4000 resin bead)", "note": "[T(Sa)-L-S-W-W]", "values": [{"measurement": "binding result", "setting": "[6]", "result": "binds"}, {"measurement": "binding result", "setting": "[7]", "result": "binds"}]}
